What was measured:
[1] = biological target: T1, topo VI holoenzyme WT (Methanosarcina mazei) (UniProt Q8PUB7+Q8PUB8); test: fluorescence anisotropy; conditions: FA: 20 nM probe, 50 mM K-glutamate, 20 mM HEPES-KOH pH 7.5, 10 mM MgCl2, 5% glycerol, 1 mM TCEP, 0.1 mg/mL BSA; incubated on ice, read at ambient temperature …
T1 sequence 1: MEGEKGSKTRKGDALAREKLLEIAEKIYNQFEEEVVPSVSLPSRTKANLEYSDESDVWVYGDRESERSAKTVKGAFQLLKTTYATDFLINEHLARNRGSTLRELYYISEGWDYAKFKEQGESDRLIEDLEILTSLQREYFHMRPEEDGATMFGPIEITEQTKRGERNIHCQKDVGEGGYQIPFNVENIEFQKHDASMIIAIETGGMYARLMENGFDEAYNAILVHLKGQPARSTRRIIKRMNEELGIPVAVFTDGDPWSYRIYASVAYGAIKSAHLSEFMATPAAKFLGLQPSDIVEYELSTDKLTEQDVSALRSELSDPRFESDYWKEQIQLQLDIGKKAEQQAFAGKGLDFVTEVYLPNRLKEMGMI
T1 sequence 2: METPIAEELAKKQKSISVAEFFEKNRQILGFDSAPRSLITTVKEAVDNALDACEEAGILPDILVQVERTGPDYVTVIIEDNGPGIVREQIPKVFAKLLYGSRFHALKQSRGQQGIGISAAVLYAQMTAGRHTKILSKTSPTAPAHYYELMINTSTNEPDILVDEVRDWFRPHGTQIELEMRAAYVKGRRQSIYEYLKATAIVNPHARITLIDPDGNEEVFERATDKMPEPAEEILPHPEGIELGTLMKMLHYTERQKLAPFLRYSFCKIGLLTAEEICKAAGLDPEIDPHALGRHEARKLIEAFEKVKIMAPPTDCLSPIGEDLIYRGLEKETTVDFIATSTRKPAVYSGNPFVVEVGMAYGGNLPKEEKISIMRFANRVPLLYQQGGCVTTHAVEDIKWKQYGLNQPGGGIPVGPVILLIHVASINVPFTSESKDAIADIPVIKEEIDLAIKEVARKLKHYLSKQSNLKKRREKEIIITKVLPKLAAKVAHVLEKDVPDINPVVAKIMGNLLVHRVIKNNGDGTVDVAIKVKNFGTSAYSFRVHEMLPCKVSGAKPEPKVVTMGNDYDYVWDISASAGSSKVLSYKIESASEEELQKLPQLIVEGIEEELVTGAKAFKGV

[2] = biological target: T2, topo VI H2TH-AAA R263A;K268A;K308A (Methanosarcina mazei) (UniProt Q8PUB7+Q8PUB8); test: competition (fluorescence anisotropy); conditions: vs FAM 70 bp; FA: 20 nM probe, 50 mM K-glutamate, 20 mM HEPES-KOH pH 7.5, 10 mM MgCl2, 5% glycerol, 1 mM TCEP, 0.1 mg/mL BSA; incubated on ice, read at ambient temperature …
T2 sequence 1: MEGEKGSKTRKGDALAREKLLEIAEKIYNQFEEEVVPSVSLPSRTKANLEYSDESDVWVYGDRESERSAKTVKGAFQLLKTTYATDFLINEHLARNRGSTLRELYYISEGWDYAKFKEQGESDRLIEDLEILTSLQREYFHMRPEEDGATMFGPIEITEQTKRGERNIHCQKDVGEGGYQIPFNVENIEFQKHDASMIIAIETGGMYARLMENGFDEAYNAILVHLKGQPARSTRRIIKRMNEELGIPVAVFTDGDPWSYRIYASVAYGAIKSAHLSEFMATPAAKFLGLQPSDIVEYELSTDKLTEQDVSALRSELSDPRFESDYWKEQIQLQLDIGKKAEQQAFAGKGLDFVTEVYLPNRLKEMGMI
T2 sequence 2: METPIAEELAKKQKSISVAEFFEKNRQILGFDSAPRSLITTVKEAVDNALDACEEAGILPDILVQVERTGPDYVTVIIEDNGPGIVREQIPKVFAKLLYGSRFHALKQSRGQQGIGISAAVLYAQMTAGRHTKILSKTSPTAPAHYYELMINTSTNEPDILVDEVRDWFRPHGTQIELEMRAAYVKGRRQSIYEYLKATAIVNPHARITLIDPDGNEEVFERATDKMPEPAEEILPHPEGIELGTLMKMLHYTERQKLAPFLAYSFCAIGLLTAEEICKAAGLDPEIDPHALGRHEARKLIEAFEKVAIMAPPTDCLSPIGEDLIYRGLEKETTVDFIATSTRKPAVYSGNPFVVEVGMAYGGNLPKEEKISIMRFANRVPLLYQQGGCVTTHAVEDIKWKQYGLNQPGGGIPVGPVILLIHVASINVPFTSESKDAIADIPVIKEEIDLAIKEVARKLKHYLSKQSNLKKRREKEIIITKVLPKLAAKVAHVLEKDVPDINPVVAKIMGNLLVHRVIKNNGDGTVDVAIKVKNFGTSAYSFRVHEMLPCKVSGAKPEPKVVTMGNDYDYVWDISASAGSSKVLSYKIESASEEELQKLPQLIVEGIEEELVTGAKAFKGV

[3] = biological target: T3, topo VI H2TH-EEE R263E;K268E;K308E (Methanosarcina mazei) (UniProt Q8PUB7+Q8PUB8); test: competition (fluorescence anisotropy); conditions: vs FAM 70 bp; FA: 20 nM probe, 50 mM K-glutamate, 20 mM HEPES-KOH pH 7.5, 10 mM MgCl2, 5% glycerol, 1 mM TCEP, 0.1 mg/mL BSA; incubated on ice, read at ambient temperature …
T3 sequence 1: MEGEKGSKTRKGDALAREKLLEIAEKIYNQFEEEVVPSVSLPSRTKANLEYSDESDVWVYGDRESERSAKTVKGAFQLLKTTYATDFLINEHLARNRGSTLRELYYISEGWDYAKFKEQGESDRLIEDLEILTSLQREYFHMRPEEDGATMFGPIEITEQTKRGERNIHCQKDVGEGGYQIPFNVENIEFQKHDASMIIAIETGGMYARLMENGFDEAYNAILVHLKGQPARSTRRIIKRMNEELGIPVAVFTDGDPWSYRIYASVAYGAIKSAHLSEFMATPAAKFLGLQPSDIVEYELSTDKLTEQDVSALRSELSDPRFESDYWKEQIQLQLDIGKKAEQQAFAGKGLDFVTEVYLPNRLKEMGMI
T3 sequence 2: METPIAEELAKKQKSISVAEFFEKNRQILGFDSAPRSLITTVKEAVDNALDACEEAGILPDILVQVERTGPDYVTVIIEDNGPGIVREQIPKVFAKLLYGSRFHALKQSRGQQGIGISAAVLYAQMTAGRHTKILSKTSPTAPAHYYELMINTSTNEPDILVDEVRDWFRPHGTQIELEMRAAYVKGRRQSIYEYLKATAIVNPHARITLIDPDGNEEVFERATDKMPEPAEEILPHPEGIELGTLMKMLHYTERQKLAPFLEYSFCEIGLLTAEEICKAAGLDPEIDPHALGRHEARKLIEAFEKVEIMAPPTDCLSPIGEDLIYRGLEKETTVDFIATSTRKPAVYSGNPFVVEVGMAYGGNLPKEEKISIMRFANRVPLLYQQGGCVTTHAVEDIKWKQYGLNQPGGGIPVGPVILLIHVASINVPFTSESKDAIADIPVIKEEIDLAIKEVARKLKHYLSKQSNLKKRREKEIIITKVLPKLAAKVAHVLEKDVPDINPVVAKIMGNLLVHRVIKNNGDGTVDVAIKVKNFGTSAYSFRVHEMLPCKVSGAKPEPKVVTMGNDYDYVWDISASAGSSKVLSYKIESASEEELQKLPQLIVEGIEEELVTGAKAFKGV

[4] = biological target: T4, topo VI KGRR-AAA K186A;R188A;R189A (Methanosarcina mazei) (UniProt Q8PUB7+Q8PUB8); test: competition (fluorescence anisotropy); conditions: vs FAM 70 bp; FA: 20 nM probe, 50 mM K-glutamate, 20 mM HEPES-KOH pH 7.5, 10 mM MgCl2, 5% glycerol, 1 mM TCEP, 0.1 mg/mL BSA; incubated on ice, read at ambient temperature …
T4 sequence 1: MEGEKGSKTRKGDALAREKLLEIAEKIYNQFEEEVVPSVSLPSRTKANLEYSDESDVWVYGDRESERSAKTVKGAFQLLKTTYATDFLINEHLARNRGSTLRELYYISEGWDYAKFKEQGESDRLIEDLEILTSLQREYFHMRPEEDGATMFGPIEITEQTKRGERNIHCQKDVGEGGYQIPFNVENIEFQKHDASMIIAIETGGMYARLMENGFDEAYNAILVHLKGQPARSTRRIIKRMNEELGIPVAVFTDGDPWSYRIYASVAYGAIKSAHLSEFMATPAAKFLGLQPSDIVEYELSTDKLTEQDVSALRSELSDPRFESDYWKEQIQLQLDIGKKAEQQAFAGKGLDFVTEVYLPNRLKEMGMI
T4 sequence 2: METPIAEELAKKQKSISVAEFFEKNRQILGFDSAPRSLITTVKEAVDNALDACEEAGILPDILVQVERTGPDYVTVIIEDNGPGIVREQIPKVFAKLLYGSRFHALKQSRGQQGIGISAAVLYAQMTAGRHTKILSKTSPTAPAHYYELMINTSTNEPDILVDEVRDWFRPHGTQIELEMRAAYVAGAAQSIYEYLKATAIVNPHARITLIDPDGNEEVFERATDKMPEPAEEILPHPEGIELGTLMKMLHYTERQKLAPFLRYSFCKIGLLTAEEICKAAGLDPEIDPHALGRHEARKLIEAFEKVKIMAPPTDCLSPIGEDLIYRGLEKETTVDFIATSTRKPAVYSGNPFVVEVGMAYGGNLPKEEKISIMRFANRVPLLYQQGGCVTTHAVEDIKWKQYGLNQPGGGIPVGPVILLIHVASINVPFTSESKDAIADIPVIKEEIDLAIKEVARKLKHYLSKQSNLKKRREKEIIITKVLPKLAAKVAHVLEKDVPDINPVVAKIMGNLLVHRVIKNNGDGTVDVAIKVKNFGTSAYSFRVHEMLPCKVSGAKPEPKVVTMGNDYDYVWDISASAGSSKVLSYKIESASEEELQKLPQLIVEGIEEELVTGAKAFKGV

[5] = biological target: T5, topo VI KGRR-EEE K186E;R188E;R189E (Methanosarcina mazei) (UniProt Q8PUB7+Q8PUB8); test: competition (fluorescence anisotropy); conditions: vs FAM 70 bp; FA: 20 nM probe, 50 mM K-glutamate, 20 mM HEPES-KOH pH 7.5, 10 mM MgCl2, 5% glycerol, 1 mM TCEP, 0.1 mg/mL BSA; incubated on ice, read at ambient temperature …
T5 sequence 1: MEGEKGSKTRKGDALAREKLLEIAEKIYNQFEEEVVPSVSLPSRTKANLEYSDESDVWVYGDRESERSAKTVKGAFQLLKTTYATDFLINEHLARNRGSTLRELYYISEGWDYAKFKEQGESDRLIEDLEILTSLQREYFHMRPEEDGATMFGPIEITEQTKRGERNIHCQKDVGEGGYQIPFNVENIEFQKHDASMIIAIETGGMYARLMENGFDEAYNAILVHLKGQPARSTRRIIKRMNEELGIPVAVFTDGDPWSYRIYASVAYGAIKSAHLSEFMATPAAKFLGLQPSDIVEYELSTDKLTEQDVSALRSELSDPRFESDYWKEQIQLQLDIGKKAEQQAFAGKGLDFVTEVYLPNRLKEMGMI
T5 sequence 2: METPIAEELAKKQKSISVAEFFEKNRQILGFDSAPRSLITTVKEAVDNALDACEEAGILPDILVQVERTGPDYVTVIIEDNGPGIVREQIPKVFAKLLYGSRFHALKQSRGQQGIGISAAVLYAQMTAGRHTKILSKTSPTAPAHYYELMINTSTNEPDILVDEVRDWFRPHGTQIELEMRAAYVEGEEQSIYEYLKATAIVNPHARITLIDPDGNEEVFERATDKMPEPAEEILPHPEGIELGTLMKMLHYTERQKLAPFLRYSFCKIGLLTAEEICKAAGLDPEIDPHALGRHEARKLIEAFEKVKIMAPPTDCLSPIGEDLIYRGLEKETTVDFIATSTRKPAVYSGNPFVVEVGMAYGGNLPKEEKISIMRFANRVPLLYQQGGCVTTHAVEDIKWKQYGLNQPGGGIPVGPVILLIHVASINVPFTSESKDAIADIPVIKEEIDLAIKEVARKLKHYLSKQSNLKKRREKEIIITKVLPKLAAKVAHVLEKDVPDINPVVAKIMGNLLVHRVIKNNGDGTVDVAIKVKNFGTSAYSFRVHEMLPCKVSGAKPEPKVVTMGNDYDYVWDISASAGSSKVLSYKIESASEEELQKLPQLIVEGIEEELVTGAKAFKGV

[6] = biological target: T1, topo VI holoenzyme WT (Methanosarcina mazei); test: competition (fluorescence anisotropy); conditions: vs FAM 70 bp; FA: 20 nM probe, 50 mM K-glutamate, 20 mM HEPES-KOH pH 7.5, 10 mM MgCl2, 5% glycerol, 1 mM TCEP, 0.1 mg/mL BSA; incubated on ice, read at ambient temperature …

| Substance | binding signal (fold Kd of 60 bp duplex) [1] | Ki [2] [nM] | Ki [3] [nM] | Ki [4] [nM] | Ki [5] [nM] | Ki [6] [nM] |
| --- | --- | --- | --- | --- | --- | --- |
| 80 bp duplex | 2 |  |  |  |  |  |
| pSG483 negatively supercoiled plasmid |  | 1.3 | 10 | 7.2 | 14.7 | 0.6 |

Reference: article PMC5922973, “Topoisomerase VI senses and exploits both DNA crossings and bends to facilitate strand passage” (eLife, 2018)
